Data on 19 sequences can be found in the DeepSol protein solubility set.

The nature of the data set: soluble on expression in E. coli; label from the status in PepcDB or PDB records.
Turning to “MIFCTVGSGIEGYEQSFSKISVEGYDTSVHEFPLKLALAKHFASCGKIVDIDVPRDFKKRILKSPLFIIFHAKEGESPVDKALELSGTDVGGWNVVVKSLPGQQMYRDPGGVDRFKGERTLIVKVYDTPSTLSKIDLQIGLCKHFSSCGEVTGISVLVHGNLCCHESKARVDIMGKGCVDKALELSGRTADGWKIVVYFVVPPAGRKLKPTGSGHPTIGVERMKKAELKKKAKMEMMDKGKKKRKTTE”, the “soluble on expression in E. coli” value is “not soluble”.

For the sequence “MIFEMMGEKFDKNAPIAMQSDVFPRFIINCRDGRTIFKENDTLEFELIIFDNLTELFIQYIYVFETIGQSGLGPEKARYELLSVSDGKGNIIYKNTLLTGNAPVSDIREYISSRLDYCLNNRKNISRMTLLSSVMLNSDCKNGNKKVFFFSAEAFSYSIRERLSRLNVLEKEDEEKLNELLSDKRIINGINMKLTKIDYYIQNEQKTVTFPRFKGYIVFDIERINSYLDYFFACEKLCIGQNILLGFGRYVMG”, the “soluble on expression in E. coli” value was “not soluble”.

As for “MIFENRLALSAMAGVNNAEFCRKQKASLVILGGFNADRRALEAAEKAVKRGRKEFLFGIDGIEGEIKKLGRRKFAVNVRSSSLEGYLNVAELVAEFEGIIEINAHCRQPEFVEIGCGEWLLFNHERLVEIVSKTSRIAPTFVKIRGGHKLDYEKIARKLFDAGCLAIHVDAMIPGGGCDFSLIERISRIGNVIGNNSFVDIESGERIIMAGAKMASAARAVLRDENFFEKMLRSPLLSQPVELSCGRFR”, the “soluble on expression in E. coli” value is “not soluble”.

On to “MIFERIKSEGLAHLSYFVGSGNEAIVIDPRRDCQIYFDIARREGMKIKYIFETHRNEDYVIGSLELKELTDAEIYHGKGVDFKYGIFVSDGQEFNFGSMKLTALHTPGHTDESMSYALTYPESGKAPLMVFTGDALFVGDVGRTDLYGPEEIPRMAANLYESIFNKILPLGDGVILCPAHGAGSLCGGAISKREYSTLGLERIQNPALQRTDKEEFIKFKLEEKLEFPPYFKKMEQYNLQGPPLLKGLPVPELLFPKEFVKEMEKGAMVVDTRMPHSFGGAHIKGSYGIWLKGLPYYAGWVLPYDKPILLVLEEKDQLETAVSYLVRIGYDSIAGFLNGGISSWYMKALPVESLNLISVQSLKDKIEKNEEMVILDVRRDEEWEKGHIEGARHVYVGHLEENLDKVPRNSPIIVYCDSSRRSNIAASILKKKGYDMVYNVLGSMTAWKNAGYKVVKLEHHHHHH”, for which the “soluble on expression in E. coli” value is “soluble”.

Regarding “MIFNIQRYSTHDGPGIRTVVFLKGCSLGCRWCQNPESRARSEDLLYDSRLCLAGCELCQQAAPAVITRTLDGLIIHRQNVNDSHIAALRDCCPTTALTVCGEEKSVEEIMATVLRDKPFYDRSGGGITLSGGEPFMNPTLAQALFEASHQAGIHTAVETCLHVPWKYIEPSLPFVDLFLADLKHVDEAVFQQWTDGSARRVLDNLQRLAQAGKKMIIRVPLIQGFNASEADIAAITDFAADRLQVSEIHYLPYHTLGMNKYQLLSQPYTAPDKPLDAPELLVFAQDYAQSKGLTAILRG”, the “soluble on expression in E. coli” value was “not soluble”.

With “MIGEIPGVAAGQPYNSRRLAHEAGVHRPLQAGICGTKATGAESIVVSGGYKDDEDYGDVIIYTGHGGRDSAGNQVSDQSLDDSGNAALVTSYLRGLPVRVIRGSQSGSPFAPSNGYRYDGLYRVASYTSKLGIDGFLIWQFRMEAYEETPTPKITKVRALFAEPTDCAKQDPVAASGTEQPERVTSMVQRIVRSSAIADTVKAWHQDQCQTCGIHIEVPGGFYSEGAHIQALGRPHNGPDRTDNMLCLCPNCHVMLDAGAIVLSDDLIVSKNGQLVGPLRTHPKHKVNIECVRRHRERWRQLEHHHHHH”, the “soluble on expression in E. coli” value is listed as “not soluble”.

For “MIGFAACECIIYNARSLKDKRAVLQRVMTRIRQKYNVSVAEIDHQDAWQRATIGLVAITSSRRATERELERALALIDSFPELERAATSFEWL”, the “soluble on expression in E. coli” value is listed as “not soluble”.

With “MIGGLFVYNHKGEVLISRIYRDDVTRNAVDAFRVNVIHARQQVRSPVTNMARTSFFHVKRGNVWICAVTRQNVNAAMVFEFLKRFADTMQSYFGKLNEENVKNNFVLIYELLDEILDFGYPQNTDPGVLKTFITQQGVRTATKEEQSQITSQVTGQIGWRREGIKYRRNELFLDVIEYVNLLMNQQGQVLSAHVAGKVAMKSYLSGMPECKFGINDKITIEGKSKPGSDDPNKASRAAVAIDDCQFHQCVKLTKFETEHAISFIPPDGEYELMRYRTTKDIQLPFRVIPLVREVSRNKMEVKVVVKSNFKPSLLAQKLEVRIPTPPNTSGVQLICMKGKAKYKAGENAIVWKIKRMAGMKESQISAEIDLLSTGNVEKKKWNRPPVSMNFEVPFAPSGLKVRYLKVFEPKLNYSDHDVIKWVRYIGRSGLYETRC”, the “soluble on expression in E. coli” value is “not soluble”.

With “MIGITGVTGKLGSKVAQLISEQGISARHLARNPQRAALYDNAELVQVAFENSLEAVEALKGIDVLLMVSASESPNRLQQHFAFLDAAHEAGVKHIVYTSFYNAATEATFTLARDHAKTEKYIKERGFTYTFLRDNFYLDFFLDLCLNNGEIRGPAGNGKVSAVARQDVSEVATTILAKPDKWKNQLLNMTGPADLSMADIVHFVSEQKGEIIPYIDESIEEAYASRKAWPAQDWEYDAWVSTYTAIKEGKQAGVSSDIERVLGRPATSLEQLVKTIK”, the “soluble on expression in E. coli” value is on record as “not soluble”.

For the sequence “MIGKRFFQTTSKKIAFAFDIDGVLFRGKKPIAGASDALKLLNRNKIPYILLTNGGGFSERARTEFISSKLDVDVSPLQIIQSHTPYKSLVNKYSRILAVGTPSVRGVAEGYGFQDVVHQTDIVRYNRDIAPFSGLSDEQVMEYSRDIPDLTTKKFDAVLVFNDPHDWAADIQIISDAINSENGMLNTLRNEKSGKPSIPIYFSNQDLLWANPYKLNRFGQGAFRLLVRRLYLELNGEPLQDYTLGKPTKLTYDFAHHVLIDWEKRLSGKIGQSVKQKLPLLGTKPSTSPFHAVFMVGDNPASDIIGAQNYGWNSCLVKTGVYNEGDDLKECKPTLIVNDVFDAVTKTLEKYA”, the “soluble on expression in E. coli” value is “soluble”.

Turning to “MIGRVFRIFREKGGILKALGLWEWYENLPHKYQKKVKHYYSLKTIKSINFPYKAKHFDTGEVENVLYTKRTFLGTIAQTALLEGDLEFAEWLYNEALKMEGSPYEAHLILNDLVLLAQKQRDLEKVKKYVLQDVELYPEYKEELKSRWGGTLPQIMAFEIYVYLLEREGKIKEALELVEWIKKEGITYPYYDQVKERLLQKLK”, the “soluble on expression in E. coli” value was “not soluble”.

On to “MIGYLFGNRVLVDDKELPLIEAYYLLDKGELEVYEDDKKLSKEEFLKKCLTYDERFLIRYKAYKELRDKGYTLGTALKFGADFRVYDIGVIPKKGKRSEREHSKWVLYPVSKDETFDFYEFASKNRVAHSTRKKMLMGIVSDKIEFIEVSWKKP”, for which the “soluble on expression in E. coli” value is given as “soluble”.

Consider “MIHLYDAKSFAKLRAAQYAAFHTDAPGSWFDHTSGVLESVEDGTPVLAIGVESGDAIVFDKNAQRIVAYKEKSVKAEDGSVSVVQVENGFMKQGHRGWLVDLTGELVGCSPVVAEFGGHRYASGMVIVTGKGNSGKTPLVHALGEALGGKDKYATVRFGEPLSGYNTDFNVFVDDIARAMLQHRVIVIDSLKNVIGAAGGNTTSGGISRGAFDLLSDIGAMAASRGCVVIASLNPTSNDDKIVELVKEASRSNSTSLVISTDVDGEWQVLTRTGEGLQRLTHTLQTSYGEHSVLTIHTSKQSGGKQASGKAIQTVIKNDELESVLRRLTSN”, for which the “soluble on expression in E. coli” value is “soluble”.

“MIIHFTLNGAPQELTVNPGENVQKLLFNMGMHSVRNSDDGFGFAGSDAIIFNGNIVNASLLIAAQLEKADIRTAESLGKWNELSLVQQAMVDVGVVQSGYNDPAAALIITDLLDRIAAPTREEIDDALSGLFSRDAGWQQYYQVIELAVARKNNPQATIDIAPTFRDDLEVIGKHYPKTDAAKMVQAKPCYVEDRVTADACVIKMLRSPHAHALITHLDVSKAEALPGVVHVITHLNCPDIYYTPGGQSAPEPSPLDRRMFGKKMRHVGDRVAAVVAESEEIALEALKLIDVEYEVLKPVMSIDEAMAEDAPVVHDEPVVYVAGAPDTLEDDNSHAAQRGEHMIINFPIGSRPRKNIAASIHGHIGDMDKGFADADVIIERTYNSTQAQQCPTETHICFTRMDGDRLVIHASTQVPWHLRRQVARLVGMKQHKVHVIKERVGGGFGSKQDILLEEVCAWATCVTGRPVLFRYTREEEFIANTSRHVAKVTVKLGAKKDGRLTAVKMDFRANTGPYGNHSLTVPCNGPALSLPLYPCDNVDFQVTTYYSNICPNGAYQGYGAPKGNFAITMALAELAEQLQIDQLEIIERNRVHEGQELKILGAIGEGKAPTSVPSAASCALEEILRQGREMIQWSSPKPQNGDWHIGRGVAIIMQKSGIPDIDQANCMIKLESDGTFIVHSGGADIGTGLDTVVTKLAAEVLHCPPQDVHVISGDTDHALFDKGAYASSGTCFSGNAARLAAENLREKILFHGAQMLGEPVADVQLATPGVVRGKKGEVSFGDIAHKGETGTGFGSLVGTGSYITPDFAFPYGANFAEVAVNTRTGEIRLDKFYALLDCGTPVNPELALGQIYGATLRAIGHSMSEEIIYDAEGHPLTRDLRSYGAPKIGDIPRDFRAVLVPSDDKVGPFGAKSISEIGVNGAAPAIATAIHDACGIWLREWHFTPEKILTALEKI”: the “soluble on expression in E. coli” value is listed as “soluble”.

As to “MIIIGIDEAGRGPVLGPMVVCAFAIEKEREEELKKLGVKDSKELTKNKRAYLKKLLENLGYVEKRILEAEEINQLMNSINLNDIEINAFSKVAKNLIEKLNIRDDEIEIYIDACSTNTKKFEDSFKDKIEDIIKERNLNIKIIAEHKADAKYPVVSAASIIAKAERDEIIDYYKKIYGDIGSGYPSDPKTIKFLEDYFKKHKKLPDIARTHWKTCKRILDKSKQTKLIIE”, the “soluble on expression in E. coli” value was “soluble”.

With “MIIREQRVEKFNAGKAVYQSVSKTESLARTAKDRKICANLEEAIRRSGLKDGMTVSFHHAFRAGDCVVNMVMNKIAEMGFKNLTLASSSLIDSHYPLIEHIKNGVVTKIYSSGLRGQLADEISRGLLAEPVNIHSHGGRVHLIKAGELKIDVAFLGVPCCDKFGNANGFSGKSKCGSLGYARIDAEYADKVVLLTEQFDEYPLNPISIGQDNVDLIVQVDEVGDPEKIGGGATRMTTNPRELLIARKCAQVIFASGYFKDGFSLQTGTGGASLAVTRFLEDKMRREQITAGFALGGITSSIVALHEAGLIKKLIDVQSFDKDAAESLARNPNHIEVSANQYANYSSKGPSVECLDIVVLSALEIDTQFNVNVLTGSDGVIRGASGGHSDTAASAQVAIIVAPLVRGRIPTVVEQVITCVTPGENIDILVTDHGVAVNPKRLDLVDKLTAAGLELFTIEQLCARAYSITGKSKEIEFKDKPVAVVRYRDGSVIDTVYQIKELEHHHHHH”, the “soluble on expression in E. coli” value is given as “soluble”.

As for “MIITEQNMPEEKLQTLSLQVINGSELESGRAARCLFTQQGNVGHAPECHWSVQDRQQSIPAQAFTVILHDGTFCLRPQTAQLWLNQAKVTATSDLIQLRQGDEIQIGRLMVRVHLNRGDIPHYDEEMATPETIVTNRDMLTDTLLSTEGAPHYPGMTHRHQLADTVVNGFSADPLQALQSESLITTGDPLSGIAAVRPSAPLSDPASNGGINTPFMDLPPIYASPGDHNDDISAAEMAQRHLAVTPLLRGLGGSLTVSNSDDADDFLEEAGRTLQAAIKGLLDLQQQRNSLSDKHLRPLEDNPLRLNMDYATALDVMFAEGKSPVHLAAPAAVSESLRNVRHHEEANRAAIVESLRVLLDAFSPQNLLRRFVQYRRSHELRQPLDDAGAWQMYSHYYEELASDRQQGFEMLFNEVYAQVYDRVLREKQREPEA”, the “soluble on expression in E. coli” value is recorded as “soluble”.

In the case of “MIITIARQCGCGGHEVARILANKLGMELFDKKKLLEEANQLGQAEEHSNFFNEVPINSLLYGIAMGFGNTKPMDKSLKLVKAITENKDAIIIGRCANIIYKDSKDVTSVYLFADKEFRIKYLMERDGISEKEAEKYIKEVDEKRTSFHKYCTDTVWGDAKEYQLCLDTGKIGFEKTAELIMNYINAKKES”, the “soluble on expression in E. coli” value was “not soluble”.

As for “MIKCIYIVCALNDNTIYSTLHYMEYSIQRGEIYMKIIKRSGSEDIFDAAKIVAAIRKANDSVLDYEKLTADQIEEIASNVETACENMKRSPSVEEIQDMVENQLMNKRAFTVARNYITYRYKRAIVRKSNST”, the “soluble on expression in E. coli” value is on record as “not soluble”.
